Source: IntAct's records for PubMed 40624043

B1: NTF2-related export protein 2 (Homo sapiens), Q9NPJ8-3 (parent)
chain: MRKYRSHWSQGDREGYQRRSNYYEGPHTSHSSPADRTREEVVTPTLPEHTATRSQMATSLDFKTYVDQACRAAEEFVNIYYETMDKRRRALTRLYLDKATLIWNGNAVSGLDALNNFFDTLPSSEFQVNMLDCQPVHEQATQSQTTVLVVTSGTVKFDGNKQHFFNQNFLLTAQSTPNNTVWKIASDCFRFQDWSSS
partner: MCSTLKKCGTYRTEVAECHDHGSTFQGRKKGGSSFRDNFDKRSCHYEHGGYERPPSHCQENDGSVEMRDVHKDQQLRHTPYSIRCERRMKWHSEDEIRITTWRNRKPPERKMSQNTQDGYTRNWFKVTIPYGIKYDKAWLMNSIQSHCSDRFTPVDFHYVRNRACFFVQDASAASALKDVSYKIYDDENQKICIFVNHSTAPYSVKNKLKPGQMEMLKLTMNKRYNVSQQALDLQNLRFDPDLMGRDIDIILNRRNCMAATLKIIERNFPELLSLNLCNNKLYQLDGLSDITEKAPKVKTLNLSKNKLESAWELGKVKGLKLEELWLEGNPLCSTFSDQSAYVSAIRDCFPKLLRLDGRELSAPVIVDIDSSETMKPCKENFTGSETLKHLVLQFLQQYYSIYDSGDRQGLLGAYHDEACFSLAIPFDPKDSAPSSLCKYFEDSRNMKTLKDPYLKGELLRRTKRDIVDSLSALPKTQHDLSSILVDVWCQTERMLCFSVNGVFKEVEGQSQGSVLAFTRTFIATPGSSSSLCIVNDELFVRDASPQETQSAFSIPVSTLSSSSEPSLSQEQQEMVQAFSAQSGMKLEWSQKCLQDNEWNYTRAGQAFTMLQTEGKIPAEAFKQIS
B2: NTF2-related export protein 2 (Homo sapiens), Q9NPJ8-3 (parent)
chain: B1 chain
partner: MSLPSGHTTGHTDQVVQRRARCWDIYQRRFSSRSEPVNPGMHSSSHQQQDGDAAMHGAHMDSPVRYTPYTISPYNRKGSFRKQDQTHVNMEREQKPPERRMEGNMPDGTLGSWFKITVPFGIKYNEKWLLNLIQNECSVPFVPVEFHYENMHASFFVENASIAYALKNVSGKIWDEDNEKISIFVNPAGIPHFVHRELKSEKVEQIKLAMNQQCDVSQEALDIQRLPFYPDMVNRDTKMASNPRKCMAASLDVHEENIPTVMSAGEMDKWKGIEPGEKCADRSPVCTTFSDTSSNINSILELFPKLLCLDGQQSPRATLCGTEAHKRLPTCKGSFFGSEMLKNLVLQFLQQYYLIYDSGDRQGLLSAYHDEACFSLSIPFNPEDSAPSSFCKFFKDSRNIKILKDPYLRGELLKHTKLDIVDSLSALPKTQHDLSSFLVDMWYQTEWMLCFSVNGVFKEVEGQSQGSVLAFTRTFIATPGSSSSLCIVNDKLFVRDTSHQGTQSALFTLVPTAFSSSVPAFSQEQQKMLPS

Variants of: B1
Conditions: with nxf2_human NXF2B

| Variant | effect of a mutation on the interaction |
| --- | --- |
| A90S | with no effect |

Variants of: B2
Conditions: with NXF3, Q9H4D5-1

| Variant | effect of a mutation on the interaction |
| --- | --- |
| A90S | with no effect |
